Non-standard residues stand in square brackets, D forms with d. *: point of attachment. FITC = O=C1OC2(c3ccc(O)cc3Oc3cc(O)ccc32)c2ccc(NC(=S)*)cc21; Nle = CCCC[C@H](N)C(=O)O; AEEA = NCCOCCOCC(=O)O
Target: T1, KIX domain from the human CREB binding protein (KIX wt) (human, UniProt Q92793 587-672)
T1 construct: domain: KIX domain; Expressed as GST fusion in E. coli, GST removed by PreScission cleavage
Experiment: fluorescence polarization, FITC-labeled MLL peptide, protein titrated 70 µM-0 µM
Description: Binding of K1-t1 and K1-t2 to mixed lineage leukemia (MLL) transcription factor was evaluated using the FITC-labeled peptide FITC-020c-[…](Nle)[…]-NH2 (SEQ ID NO: 6). This sequence is derived from MLL and will be refereed as MLL peptide throughout. A 40 nM solution of MLL peptide in 25 mM HEPES (pH 7.4), 100 mM NaCl and 2 mM TCEP was prepared. A 3-fold dilution of KIX, K1-t1 and K1-t2 was performed in 14 steps on a 384-well-plate (black, round bottom, Corning) using the same buffer. 5 μL of 40 nM MLL peptide solution was then added, and the final 20 μL solution was incubated at r.t. A final protein range of 70 μM-0 μM was used. After 1 h-incubation, fluorescence polarization was measured using a Spark 20M plate reader (Tecan) with λ(ex)=485 nm and λ(em)=525 nm. Kd were determined by applying nonlinear regression analysis of dose-response curves in GraphPad Prism software.

T1 sequence (Q92793 587-672 limits assumed): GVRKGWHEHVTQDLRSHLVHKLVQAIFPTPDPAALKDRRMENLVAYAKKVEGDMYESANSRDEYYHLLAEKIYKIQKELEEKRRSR

Kd: 600 nM
B1: MLL peptide FITC-O2Oc-GNILPSDI(Nle)DFVLKNTP-NH2 (peptide)
peptide: {FITC-AEEA}-GNILPSDI[Nle]DFVLKNTP-NH2
notes: Synthetic peptide made by Fmoc SPPS on Rink amide resin; Used at 10 nM final (5 uL of 40 nM in 20 uL) in the FP assay; also called mixed lineage leukemia (MLL) transcription factor derived peptide

— patent US11788081 (STICHTING VU, dated 2023)
